# From IntAct's records for PubMed 29039417
# B1: Protein PTHB1 (Homo sapiens), Q3SYG4 (parent)
# chain: MSLFKARDWWSTILGDKEEFDQGCLCLANVDNSGNGQDKIIVGSFMGYLRIFSPHPAKTGDGAQAEDLLLEVDLRDPVLQVEVGKFVSGTEMLHLAVLHSRKLCVYSVSGTLGNVEHGNQCQMKLMYEHNLQRTACNMTYGSFGGVKGRDLICIQSMDGMLMVFEQESYAFGRFLPGFLLPGPLAYSSRTDSFLTVSSCQQVESYKYQVLAFATDADKRQETEQQKLGSGKRLVVDWTLNIGEQALDICIVSFNQSASSVFVLGERNFFCLKDNGQIRFMKKLDWSPSCFLPYCSVSEGTINTLIGNHNNMLHIYQDVTLKWATQLPHIPVAVRVGCLHDLKGVIVTLSDDGHLQCSYLGTDPSLFQAPNVQSRELNYDELDVEMKELQKIIKDVNKSQGVWPMTEREDDLNVSVVVSPNFDSVSQATDVEVGTDLVPSVTVKVTLQNRVILQKAKLSVYVQPPLELTCDQFTFEFMTPDLTRTVSFSVYLKRSYTPSELEGNAVVSYSRPTDRNPDGIPRVIQCKFRLPLKLICLPGQPSKTASHKITIDTNKSPVSLLSLFPGFASQSDDDQVNVMGFHFLGGARITVLASKTSQRYRIQSEQFEDLWLITNELILRLQEYFEKQGVKDFACSFSGSIPLQEYFELIDHHFELRINGEKLEELLSERAVQFRAIQRRLLARFKDKTPAPLQHLDTLLDGTYKQVIALADAVEENQGNLFQSFTRLKSATHLVILLIALWQKLSADQVAILEAAFLPLQEDTQELGWEETVDAAISHLLKTCLSKSSKEQALNLNSQLNIPKDTSQLKKHITLLCDRLSKGGRLCLSTDAAAPQTMVMPGGCTTIPESDLEERSVEQDSTELFTNHRHLTAETPRPEVSPLQGVSE
# partner: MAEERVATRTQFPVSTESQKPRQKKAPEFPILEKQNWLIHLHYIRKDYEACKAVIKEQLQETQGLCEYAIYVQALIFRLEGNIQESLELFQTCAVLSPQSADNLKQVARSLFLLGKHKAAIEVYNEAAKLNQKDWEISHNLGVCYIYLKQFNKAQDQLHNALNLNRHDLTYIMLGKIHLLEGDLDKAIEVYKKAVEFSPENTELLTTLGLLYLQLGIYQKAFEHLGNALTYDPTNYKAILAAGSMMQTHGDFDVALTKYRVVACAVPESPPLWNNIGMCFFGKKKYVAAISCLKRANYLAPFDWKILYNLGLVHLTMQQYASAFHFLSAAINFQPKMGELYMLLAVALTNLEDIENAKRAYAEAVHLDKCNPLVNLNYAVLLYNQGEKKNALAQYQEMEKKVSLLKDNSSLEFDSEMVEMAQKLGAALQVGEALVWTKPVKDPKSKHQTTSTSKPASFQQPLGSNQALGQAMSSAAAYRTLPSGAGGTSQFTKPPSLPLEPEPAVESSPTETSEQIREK
# Variants of: B1
# Details: with bbs4_human BBS4, Q96RK4
row,Variant,effect of a mutation on the interaction
1,K803A,with no effect
2,K803E,with no effect
3,Q798K,disrupting interaction strength
4,Q798A,with no effect
5,Q798E,with no effect
6,D804E,with no effect
7,D804A,with no effect
8,D804K,with no effect
9,D804F,disrupting interaction strength
10,V772K,disrupting interaction strength
11,V772A,with no effect
12,V772E,disrupting interaction strength
13,N800E,with no effect
14,N800K,with no effect
15,N800A,with no effect
16,I801E,with no effect
17,I801K,with no effect
18,I801A,disrupting interaction strength
19,L793E,with no effect
20,L793A,with no effect
21,L793K,with no effect
22,T805K,with no effect
23,T805A,with no effect
24,T805E,with no effect
25,A775K,with no effect
26,A775E,with no effect

row,Variant,effect of a mutation on the interaction
1,D773A,with no effect
2,D773K,with no effect
3,D773E,with no effect
4,P802K,with no effect
5,P802A,with no effect
6,P802T,disrupting interaction strength
7,P802E,with no effect
8,A792K,with no effect
9,A792E,with no effect
10,E790K,with no effect
11,E790A,with no effect
12,K786A,with no effect
13,K786E,with no effect
14,S787A,with no effect
15,S787E,with no effect
16,S787K,with no effect
17,I776K,with no effect
18,I776A,with no effect
19,I776E,with no effect
20,K789A,with no effect
21,K789E,with no effect
22,Q791E,with no effect
23,Q791A,with no effect
24,Q791K,with no effect
25,Q791L,disrupting interaction strength
26,L779E,with no effect

row,Variant,effect of a mutation on the interaction
1,L779K,with no effect
2,L779A,with no effect
3,A774K,with no effect
4,A774E,with no effect
5,S806E,with no effect
6,S806A,with no effect
7,S806K,with no effect
8,L795K,with no effect
9,L795E,with no effect
10,L795A,with no effect
11,N796K,with no effect
12,N796A,with no effect
13,N796E,with no effect
14,S797A,with no effect
15,S797E,with no effect
16,S797K,with no effect
17,S785E,with no effect
18,S785A,with no effect
19,S785K,disrupting interaction strength
20,S777A,with no effect
21,S777K,with no effect
22,S777E,disrupting interaction strength
23,S788K,with no effect
24,S788A,with no effect
25,S788E,with no effect
26,K781E,with no effect

row,Variant,effect of a mutation on the interaction
1,K781A,with no effect
2,N794E,with no effect
3,N794A,with no effect
4,N794K,with no effect
5,T782A,with no effect
6,T782E,with no effect
7,T782K,with no effect
8,C783A,with no effect
9,C783E,with no effect
10,C783K,with no effect
11,T771K,with no effect
12,T771E,with no effect
13,Q807E,with no effect
14,Q807A,with no effect
15,L799K,with no effect
16,L799A,with no effect
17,L799E,with no effect
18,L784A,with no effect
19,L784E,with no effect
20,L784K,with no effect
21,L780A,with no effect
22,L780E,with no effect
23,L780K,with no effect
24,H778E,with no effect
25,H778A,with no effect
26,H778K,with no effect

# The remaining lines, values ahead:
row,effect of a mutation on the interaction,Variant
1,with no effect,P834A
2,with no effect,P834E
3,with no effect,A832E
4,with no effect,A832K
5,with no effect,T829E
6,with no effect,T829A
7,with no effect,T829K
8,with no effect,D830E
9,with no effect,D830K
10,with no effect,D830A
11,with no effect,C826E
12,with no effect,C826K
13,with no effect,C826A
14,disrupting interaction strength,C826R
15,with no effect,I812E
16,with no effect,I812K
17,with no effect,I812A
18,with no effect,A831E
19,with no effect,A831K
20,with no effect,C816A
21,with no effect,C816K
22,with no effect,C816E
23,with no effect,D817E
24,with no effect,D817K
25,with no effect,D817A
26,with no effect,S828A

row,effect of a mutation on the interaction,Variant
1,with no effect,S828E
2,with no effect,S828K
3,with no effect,L819A
4,with no effect,L819K
5,with no effect,L819E
6,with no effect,L815E
7,with no effect,L815A
8,with no effect,L815K
9,with no effect,K810A
10,with no effect,K810E
11,with no effect,G823E
12,with no effect,G823K
13,with no effect,G823A
14,with no effect,L808E
15,with no effect,L808K
16,with no effect,L808A
17,with no effect,L827K
18,with no effect,L827E
19,with no effect,L827A
20,with no effect,L825A
21,with no effect,L825K
22,with no effect,L825E
23,with no effect,H811E
24,with no effect,H811A
25,with no effect,H811K
26,with no effect,R824E

row,effect of a mutation on the interaction,Variant
1,with no effect,R824A
2,with no effect,R824K
3,with no effect,L814A
4,with no effect,L814E
5,with no effect,L814K
6,with no effect,K821E
7,with no effect,K821A
8,with no effect,Q807K
9,with no effect,K809E
10,with no effect,K809A
11,disrupting interaction strength,R818T
12,with no effect,R818E
13,with no effect,R818K
14,with no effect,R818A
15,with no effect,G822E
16,with no effect,G822K
17,with no effect,G822A
18,disrupting interaction strength,A833S
19,with no effect,A833K
20,with no effect,A833E
21,with no effect,T813E
22,with no effect,T813K
23,with no effect,T813A
24,with no effect,S820A
25,with no effect,S820E
26,with no effect,S820K
